± gives the standard deviation.

The series in a line: protein stability index of a GFP-peptide fusion (GPS, HEK-293T) (PSI 1-6); higher = more stable. Particulars: c terminus: a fixed tail appended.
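Further: 24-mer peptide tiles fused after GFP, lentivirally expressed, FACS-sorted into six equal bins by GFP/DsRed ratio, decoded by Illumina sequencing, PSI is the read-weighted mean bin number.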

In the case of GQTVTIWAANAGVTASPPTDLIWK [LMNB1], the protein stability index is 2.37 ± 0.35 (treatment: DMSO) and 2.34 ± 0.32 (treatment: MLN4924 1 uM, 8 h).
The matching figures for ASTSTPSSTLVRPIRSRRALPPLR [FAM189A2]: 4.16 ± 0.17 and 4.21 ± 0.21.
For MEHQLLCCEVETIRRAYPDANLLN [CCND1], the protein stability index reads like this: (treatment: DMSO) 2.86 ± 0.24; (treatment: MLN4924 1 uM, 8 h) 2.87 ± 0.28.
Consider EYLSLVKGGQDVKKKVHLSEKIHP [PRIM1], for which the protein stability index is, setting by setting: (treatment: DMSO) 2.65 ± 0.3; (treatment: MLN4924 1 uM, 8 h) 2.79 ± 0.39.
Consider SEDRRSRHCPYLDTINRSVLDFDF [USP39], for which the protein stability index worked out at 3.18 ± 0.074 (treatment: DMSO) and 3.44 ± 0.3 (treatment: MLN4924 1 uM, 8 h).
The matching figures for RAVRQSVTSFPDADAFHHQVHDDD [EMD]: 5.2 ± 0.17 and 5.314 ± 0.044.
The matching figures for DDSDTQQVVVLVRDNGDPSLSSTA [PCDHGC5]: 4.76 ± 0.16 and 4.83 ± 0.22.
The matching figures for CVARPGTPSLLRFALASLLQSAPD [ZSWIM9]: 2.19 ± 0.18 and 2.24 ± 0.31.
PYSTVDNPVYYGPSDFFIGAVIEV [EFHC1]: the protein stability index reads like this: (treatment: DMSO) 2.8 ± 0.48; (treatment: MLN4924 1 uM, 8 h) 3.13 ± 0.53.
For QRAQAEVLQSVRELSRSRKLYGQR [FCHSD1], the protein stability index turned out to be 3.76 ± 0.2 (treatment: DMSO) and 3.85 ± 0.36 (treatment: MLN4924 1 uM, 8 h).
The matching figures for NDIMAYMFGFFFGRTPLIKLSPKK [CDS2]: 2.03 ± 0.31 and 2.08 ± 0.22.
KCLLYCNGVLEPLYLCPNGARCAT [SLC25A39]: the protein stability index is 2.24 ± 0.11 (treatment: DMSO) and 2.11 ± 0.27 (treatment: MLN4924 1 uM, 8 h).
The matching figures for GDKGALQRLIVGNSALKDKEDQFG [INVS]: 4.62 ± 0.21 and 4.72 ± 0.093.
FYQAVRDLLPVWLLEDMRASEAFH [ANKRD9] registered a protein stability index (treatment: DMSO) of 2.85 ± 0.47 and a protein stability index (treatment: MLN4924 1 uM, 8 h) of 2.59 ± 0.57.
The matching figures for EIATKPHEKIGFPAARRCHSCVQI [KLHDC10]: 2.43 ± 0.29 and 2.59 ± 0.2.
The matching figures for QVNRRSAKGNTALHDCAESGSLEI [FEM1A]: 4.56 ± 0.049 and 4.26 ± 0.21.
The matching figures for AEKVNQDMCMKVPDDPEHLAARRQ [CRYL1]: 5.27 ± 0.61 and 5.15 ± 0.26.
Regarding NNQSDLEKEMQKMNPYKIDIGAVY [PRIM1], the protein stability index was found to be 3.03 ± 0.24 (treatment: DMSO) and 3.03 ± 0.16 (treatment: MLN4924 1 uM, 8 h).
Regarding VLDELTLARADLEMQIENLKEELA [KRT17], the protein stability index is, setting by setting: (treatment: DMSO) 3.04 ± 0.29; (treatment: MLN4924 1 uM, 8 h) 3.1 ± 0.37.
The matching figures for RGGSDPETTGIQIWSEVFTVEKPG [ATL3]: 4 ± 0.59 and 4.09 ± 0.28.
The matching figures for IKSKKKLLQIIDTTLLKCYLHTNV [VPS39]: 3.04 ± 0.37 and 2.86 ± 0.52.
Turning to LVSLTSRNPDQRKESLCISITVSK [FBXO34], the protein stability index runs as follows: (treatment: DMSO) 2.26 ± 0.1; (treatment: MLN4924 1 uM, 8 h) 2.47 ± 0.15.
The matching figures for WFLVPISSVICNDITAYLFGFFFG [CDS1]: 2.75 ± 0.036 and 3.16 ± 1.
As to CLMIGRDLVRLLQNVARIPEFELL [INTS3], the protein stability index turned out to be 2.49 ± 0.17 (treatment: DMSO) and 2.24 ± 0.25 (treatment: MLN4924 1 uM, 8 h).
Consider AKLHDVELHQVAERVEALGQFVMK [GNB5], for which the protein stability index runs as follows: (treatment: DMSO) 3.78 ± 0.2; (treatment: MLN4924 1 uM, 8 h) 3.74 ± 0.14.
Regarding ILCNKTAYQEVFKPENISLRNKLR [SMG5], the protein stability index stood at 2.46 ± 0.24 (treatment: DMSO) and 2.77 ± 0.23 (treatment: MLN4924 1 uM, 8 h).
The matching figures for GVMLTWPDGLMYQKFRNQFLSFSM [TMEM120A]: 2.89 ± 0.98 and 2.69 ± 0.43.
The matching figures for SRAILQRVQAAAFGPGQTLLSSVH [ALKBH7]: 2.72 ± 0.14 and 2.65 ± 0.35.
Turning to DQTGKEVADRWYSEIKNYNFQQPG [GLIPR2], the protein stability index came to 4.15 ± 0.34 (treatment: DMSO) and 3.88 ± 0.31 (treatment: MLN4924 1 uM, 8 h).
SMEIYGSAVADKLDNSRSILKRRY [CTDNEP1] showed a protein stability index (treatment: DMSO) of 3.28 ± 0.22 and a protein stability index (treatment: MLN4924 1 uM, 8 h) of 3.71 ± 0.41.
For LLEERRPADSAQLLSLNSLLPESG [TFE3], the protein stability index was 4.37 ± 0.42 (treatment: DMSO) and 4.54 ± 0.24 (treatment: MLN4924 1 uM, 8 h).
Turning to LGLYINFRHLYKQRRRRYGQKKKK [HACD3], the protein stability index is, setting by setting: (treatment: DMSO) 2.37 ± 0.22; (treatment: MLN4924 1 uM, 8 h) 2.61 ± 0.34.
The matching figures for VRYNRVGILRRILRTLRDFPAEER [ANKRD9]: 2.4 ± 0.16 and 2.6 ± 0.56.
The matching figures for TMDGEGTLFQTESPQSGSILTEET [PBXIP1]: 5.44 ± 0.066 and 5.43 ± 0.17.
The matching figures for ALKRFVNLVARHPLFSEDVVLKLF [SNX8]: 2.38 ± 0.88 and 2.46 ± 0.1.
MENLPGLASGPGKYMPHLCQDSSG: the protein stability index was 4.05 ± 0.067 (treatment: DMSO) and 3.93 ± 0.12 (treatment: MLN4924 1 uM, 8 h).

Values taken from the supplement of paper PMC10567573.
